From publication PMC9668162 come the findings set out here.

The assay concerns the target PAM1.4 Fab (human) (UniProt P01834). Kind of assay: ELISA. For orientation: In an ELISA, binding on a coated surface is turned into a signal by an enzyme label.

As usually defined, the Kd is a measure of binding affinity in units of concentration.

In turn, “recombinant full-length VAR2CSA (variant FCR3), full ectodomain (domain or fragment)” showed a Kd of 12 nM.
